# Data as given in patent US20070218069A1 (published 2007).
# Changes are numbered by the printed parent chain.
# B1: Fab apu02 (Fab, V domains shown)
# VH: EVQLVESGGGLVQPGGSLRLSCAASGFNVSYSYMHWVRQAPGKGLEWVASISSYYSYTSYADSVKGRFTISADTSKNTAYLQMNSLRAEDTAVYYCARSYSYYSAIDYWGQGTLVTVSS
# VL: DIQMTQSPSSLSASVGDRVTITCRASQSVSSAVAWYQQKPGKAPKLLIYSASSLYSGVPSRFSGSRSGTDFTLTISSLQPEDFATYYCQQSSYSSLFTFGQGTKVEIK
# B2: Fab apu13 (Fab, V domains shown)
# VH: B1 VH with S32Y, Y33S, M34I, S52Y, S53P, Y103S, S104Y, A105G, I106L
# VL: DIQMTQSPSSLSASVGDRVTITCRASQSVSSAVAWYQQKPGKAPKLLIYSASSLYSGVPSRFSGSRSGTDFTLTISSLQPEDFATYYCQQYSSSYYPFTFGQGTKVEIK
# B3: Fab apu11 (Fab, V domains shown)
# VH: EVQLVESGGGLVQPGGSLRLSCAASGFNVSYYYIHWVRQAPGKGLEWVASISSYYGYTSYADSVKGRFTISADTSKNTAYLQMNSLRAEDTAVYYCARENYWWAIDYWGQGTLVTVSS
# VL: B1 VL with S92Y, S94Y, S95Y, L96P, F97I
# B4: Fab apu07 (Fab, V domains shown)
# VH: EVQLVESGGGLVQPGGSLRLSCAASGFNLSYSYIHWVRQAPGKGLEWVASISSYYGSTSYADSVKGRFTISADTSKNTAYLQMNSLRAEDTAVYYCARESFYYSPAFDYWGQGTLVTVSS
# VL: B1 VL with S92Y, S94Y
# B5: Fab apu2.04 (Fab, V domains shown)
# VH: B1 VH with V29I, Y33S, S52Y, Y103S, S104F, A105G, I106M
# VL: B1 VL with F97I
# B6: Fab apu2.07 (Fab, V domains shown)
# VH: B1 VH with V29I, Y33S, S52Y, Y103H, S104L, A105G, I106M
# VL: B1 VL with F97I
# B7: Fab apu2.10 (Fab, V domains shown)
# VH: B1 VH with V29I, Y33S, S52Y, Y103F, S104L, I106M
# VL: B1 VL with F97I
# B8: Fab apu2.03 (Fab, V domains shown)
# VH: B1 VH with V29I, Y33S, S52Y, Y103S, S104L, I106F
# VL: B1 VL with F97I
# B9: Fab apu2.05 (Fab, V domains shown)
# VH: B1 VH with V29I, Y33S, S52Y, Y103R, S104M, I106F
# VL: B1 VL with F97I
# B10: Fab apu2.01 (Fab, V domains shown)
# VH: B1 VH with V29I, Y33S, S52Y, Y103S, S104E, I106L
# VL: B1 VL with F97I
# B11: Fab apu2.06 (Fab, V domains shown)
# VH: B1 VH with V29I, Y33S, S52Y, S99G, Y102W, Y103F, S104N
# VL: B1 VL with F97I
# B12: Fab apu2.09 (Fab, V domains shown)
# VH: B1 VH with V29I, Y33S, S52Y, Y103H, S104V, I106F
# VL: B1 VL with F97I
# B13: Fab apu2.02 (Fab, V domains shown)
# VH: B1 VH with V29I, S30F, S32G, Y33G, M34I, S52Y, I106M
# VL: B1 VL with F97I
# B14: Fab apu2.08 (Fab, V domains shown)
# VH: B1 VH with V29I, Y33S, S52Y, Y103S, S104V, A105G, I106M
# VL: B1 VL with F97I
# Biological target: T1, K48-linked diubiquitin (human, UniProt P0CG48 1-76, isopeptide bond between Lys48 of one ubiquitin and the C-terminal Gly of the other)
# T1 construct: Boston Biochem
# Experiment: SPR Biacore, antigen immobilized
Kd,koff,kon,Binder
12.7 nM,0.00696 s⁻¹,546000 M⁻¹ s⁻¹,B1
139 nM,0.016 s⁻¹,115000 M⁻¹ s⁻¹,B2
19.6 nM,0.0177 s⁻¹,904000 M⁻¹ s⁻¹,B3
9.49 nM,0.00993 s⁻¹,1.05e+06 M⁻¹ s⁻¹,B4

# Biological target: T1, K48-linked diubiquitin
# Experiment: SPR Biacore, antigen immobilized
# Remark: another data set of the same source
Kd,koff,kon,Binder
15.1 nM,0.00939 s⁻¹,622000 M⁻¹ s⁻¹,B5
1.18 nM,0.00318 s⁻¹,2.7e+06 M⁻¹ s⁻¹,B6
1.21 nM,0.00399 s⁻¹,3.28e+06 M⁻¹ s⁻¹,B7
3.07 nM,0.00266 s⁻¹,867000 M⁻¹ s⁻¹,B8
5.06 nM,0.00609 s⁻¹,1.2e+06 M⁻¹ s⁻¹,B9
23.5 nM,0.0149 s⁻¹,633000 M⁻¹ s⁻¹,B10
1.87 nM,0.0024 s⁻¹,1.28e+06 M⁻¹ s⁻¹,B11
6.69 nM,0.00478 s⁻¹,715000 M⁻¹ s⁻¹,B12
9.16 nM,0.0101 s⁻¹,1.11e+06 M⁻¹ s⁻¹,B13
5.76 nM,0.00721 s⁻¹,1.25e+06 M⁻¹ s⁻¹,B14
